Measurements published in US20030099608A1 (ZymoGenetics, published 2003).
Each block holds one molecule with its values, some of them ahead of it.

Assays:
[1] = target: human IL-TIF (T-cell inducible Factor) (human) (UniProt Q9GZX6); test: cell-based or functional assay
[2] = target: T1, CRF2-4/zcytor11 heterodimeric receptor on BaF3 cells (BaF3/CRF2-4/zcytor11 cells) (human, UniProt Q08334 20-325; Q8N6P7 16-574); test: cell-based or functional assay
T1 sequence (looked up) 1: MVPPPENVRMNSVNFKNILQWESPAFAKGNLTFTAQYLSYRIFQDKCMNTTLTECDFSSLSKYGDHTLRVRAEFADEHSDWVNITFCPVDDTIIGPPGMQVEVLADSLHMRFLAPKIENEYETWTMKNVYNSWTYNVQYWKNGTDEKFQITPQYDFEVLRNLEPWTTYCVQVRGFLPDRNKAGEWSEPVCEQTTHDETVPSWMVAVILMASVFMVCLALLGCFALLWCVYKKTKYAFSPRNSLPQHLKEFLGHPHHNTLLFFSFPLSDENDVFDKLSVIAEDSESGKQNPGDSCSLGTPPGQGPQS
T1 sequence (looked up) 2: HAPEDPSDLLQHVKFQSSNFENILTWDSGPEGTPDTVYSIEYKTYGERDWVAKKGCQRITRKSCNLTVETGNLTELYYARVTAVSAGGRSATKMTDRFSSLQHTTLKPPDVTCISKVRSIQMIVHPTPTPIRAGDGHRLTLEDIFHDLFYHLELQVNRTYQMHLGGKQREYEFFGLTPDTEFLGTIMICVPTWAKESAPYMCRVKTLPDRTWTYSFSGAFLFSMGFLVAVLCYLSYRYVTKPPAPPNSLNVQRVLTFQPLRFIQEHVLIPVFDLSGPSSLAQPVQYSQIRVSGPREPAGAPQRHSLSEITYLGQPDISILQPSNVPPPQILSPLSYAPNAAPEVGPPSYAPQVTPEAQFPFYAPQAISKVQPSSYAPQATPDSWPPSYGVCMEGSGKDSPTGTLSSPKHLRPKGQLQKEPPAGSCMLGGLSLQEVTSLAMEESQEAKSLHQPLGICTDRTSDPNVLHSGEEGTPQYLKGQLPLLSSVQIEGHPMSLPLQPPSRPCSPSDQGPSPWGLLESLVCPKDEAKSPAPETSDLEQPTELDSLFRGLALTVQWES

concentration of CRF2-4/zcytor11-Fc4 at which inhibition of proliferation induced by 100 pg/ml IL-TIF was barely detectable [1]: 63 ng/mL
concentration of CRF2-4/zcytor11-Fc4 giving complete inhibition of proliferation induced by 100 pg/ml IL-TIF [1]: 8 µg/mL
Molecule: secreted hzcytor11/hCRF2-4 heterodimer (CRF2-4/zcytor11-Fc4) (Fc fusion)

proliferation of BaF3/CRF2-4/zcytor11 cells (Alamar Blue), fold over background with 100 pg/ml IL-TIF alone [2]: 13 fold over background
B1: human IL-TIF (T-cell inducible Factor) (ligand)
chain: APISSHCRLDKSNFQQPYITNRTFMLAKEASLADNNTDVRLIGEKLFHGVSMSERCYLMKQVLNFTLEEVLFPQSDRFQPYMQEVVPFLARLSNRLSTCHIEGDDLHIQRNVQKLKDTVKKLGESGEIKAIGELDLLFMSLRNACI

proliferation of BaF3/CRF2-4/zcytor11 cells (Alamar Blue), fold induction at 0.06 ng/ml IL-TIF-CEE [2]: 2 fold induction
proliferation of BaF3/CRF2-4/zcytor11 cells (Alamar Blue), fold over background at 50 ng/ml IL-TIF-CEE [2]: ~15 fold over background
B2: IL-TIF-CEE (IL-TIF polypeptide with C-terminal Glu-Glu tag) (ligand)
chain: APISSHCRLDKSNFQQPYITNRTFMLAKEASLADNNTDVRLIGEKLFHGVSMSERCYLMKQVLNFTLEEVLFPQSDRFQPYMQEVVPFLARLSNRLSTCHIEGDDLHIQRNVQKLKDTVKKLGESGEIKAIGELDLLFMSLRNACIEYMPME
